B1: His6-BakΔTM (recombinant His-tagged Bak lacking the transmembrane domain, aa 1–186) (domain or fragment, UniProt Q16611 1-186, looked up)
chain: MASGQGPGPPRQECGEPALPSASEEQVAQDTEEVFRSYVFYRHQQEQEAEGVAAPADPEMVTLPLQPSSTMGQVGRQLAIIGDDINRRYDSEFQTMLQHLQPTAENAYEYFTKIATSLFESGINWGRVVALLGFGYRLALHVYQHGLTGFLGQVTRFVVDFMLHHCIARWIAQRGGWVAALNLGNG

Data set [1] addresses GST-Casp8p41 (UniProt Q14790 1-355). The experiment in a line: SPR. Background: SPR reads the build-up and loss of mass on a sensor chip optically.
Data set [2] concerns the target GST-Casp8p41 V150A/L157A (UniProt Q14790 1-355, V150A | L157A). The experiment in a line: SPR.
Data set [3] addresses GST-Casp8p41 V150E/L157K (UniProt Q14790 1-355, V150E | L157K). The experiment in a line: SPR.
Data set [4] deals with the molecule itself. The experiment in a line: cross-linking.
In data set [5] the target is B1. The experiment in a line: SPR.

Values joined by “and” are separate entries in the source; they are usually repeats but may differ in a detail not shown here. Identical values can stand only once.

A word on the Kd: it is the equilibrium constant for the complex coming apart. A lower Kd goes with tighter binding. Broadly, the stoichiometry N is the number of molecules, sites or subunits per partner or assembly. For B1, the Kd in data set [1] was 16 nM and 19 nM; in data set [2], 22 nM; in data set [3], 400 nM. Moreover, the “stoichiometry N” value in data set [4] was 2.

B2: GST–procaspase 8 (full-length procaspase 8 fused to GST) (natural protein, UniProt Q14790 1-479, looked up)
chain: MDFSRNLYDIGEQLDSEDLASLKFLSLDYIPQRKQEPIKDALMLFQRLQEKRMLEESNLSFLKELLFRINRLDLLITYLNTRKEEMERELQTPGRAQISAYRVMLYQISEEVSRSELRSFKFLLQEEISKCKLDDDMNLLDIFIEMEKRVILGEGKLDILKRVCAQINKSLLKIINDYEEFSKERSSSLEGSPDEFSNGEELCGVMTISDSPREQDSESQTLDKVYQMKSKPRGYCLIINNHNFAKAREKVPKLHSIRDRNGTHLDAGALTTTFEELHFEIKPHDDCTVEQIYEILKIYQLMDHSNMDCFICCILSHGDKGIIYGTDGQEAPIYELTSQFTGLKCPSLAGKPKVFFIQACQGDNYQKGIPVETDSEEQPYLEMDLSSPQTRYIPDEADFLLGMATVNNCVSYRNPAEGTWYIQSLCQSLRERCPRGDDILTILTEVNYEVSNKDDKKNMGKQMPQPTFTLRKKLVFPSD
Consider B2, for which the “fold less tight binding than GST-Casp8p41” value in data set [5] came out at 100 fold.

B3: Bim BH3 peptide (peptide)
peptide: RPEIWIAQELRRIGDEFNAYYARRVF
Take B3: in data set [5], the binding result is listed as “binds”.
